Data as given in the supplement of paper PMC9112550, “Optimization of the antimicrobial peptide Bac7 by deep mutational scanning” (BMC Biology, 2022).

system: Escherichia coli TOP10; experiment: shrunken log2 fold change of peptide-encoding DNA abundance (4.5 h post-induction vs induction); higher = less antimicrobial activity (less host growth inhibition); details: time post-induction: 4.5 h; library: site-saturation at positions 5, 18, 19, 20
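Further: peptides expressed intracellularly from a pBAD plasmid library in pooled LB shake-flask culture, induced with 0.3% L-arabinose, DNA abundance read by NGS, three biological replicates, DESeq2 with apeglm shrinkage.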

Sequence | shrunken log2 fold change
RRIRYRPPRLPRPRPRPDTNPRP | -0.0185
RRIRERPPRLPRPRPRPAKVPRP | -0.182
RRIRDRPPRLPRPRPRPIRFPRP | -0.0156
RRIRARPPRLPRPRPRPLVNPRP | 0.0552
RRIRERPPRLPRPRPRPPEEPRP | 0.499
RRIRVRPPRLPRPRPRPGTDPRP | -0.117
RRIRVRPPRLPRPRPRPSQVPRP | -0.215
RRIRTRPPRLPRPRPRPIAPPRP | -0.0608
RRIRRRPPRLPRPRPRPWGLPRP | -0.222
RRIRNRPPRLPRPRPRPTWDPRP | -0.0897
RRIRGRPPRLPRPRPRPVVRPRP | 0.602
RRIRKRPPRLPRPRPRPAWVPRP | 0.483
RRIRMRPPRLPRPRPRPQTQPRP | 2.46
RRIRHRPPRLPRPRPRPECQPRP | -0.0633
RRIRNRPPRLPRPRPRPGIWPRP | 0.0115
RRIRMRPPRLPRPRPRPQTEPRP | 0.12
RRIRTRPPRLPRPRPRPSDRPRP | -0.138
RRIRERPPRLPRPRPRPECHPRP | 0.0213
RRIRIRPPRLPRPRPRPYWQPRP | -0.774
RRIRNRPPRLPRPRPRPKTLPRP | -0.134
RRIRHRPPRLPRPRPRPLMGPRP | 0.11
RRIRMRPPRLPRPRPRPGHYPRP | -0.196
RRIRVRPPRLPRPRPRPFWPPRP | 0.162
RRIRLRPPRLPRPRPRPTCCPRP | -0.013
RRIRPRPPRLPRPRPRPQYWPRP | -0.0415

Sequence | shrunken log2 fold change
RRIRDRPPRLPRPRPRPLVQPRP | 0.709
RRIRYRPPRLPRPRPRPFKIPRP | 0.0602
RRIRKRPPRLPRPRPRPLYMPRP | -0.514
RRIRFRPPRLPRPRPRPMHFPRP | -0.136
RRIRWRPPRLPRPRPRPEMGPRP | 0.271
RRIRERPPRLPRPRPRPVNWPRP | -0.0528
RRIRTRPPRLPRPRPRPAPVPRP | 0.0626
RRIRARPPRLPRPRPRPHPQPRP | 0.45
RRIRQRPPRLPRPRPRPFMQPRP | -0.259
RRIRVRPPRLPRPRPRPYKDPRP | -0.933
RRIRQRPPRLPRPRPRPEGVPRP | 0.381
RRIRSRPPRLPRPRPRPPACPRP | 0.185
RRIRLRPPRLPRPRPRPAMHPRP | 0.0794
RRIRIRPPRLPRPRPRPLYAPRP | -0.651
RRIRWRPPRLPRPRPRPKSEPRP | 0.502
RRIRMRPPRLPRPRPRPSGNPRP | -0.14
RRIRGRPPRLPRPRPRPKHKPRP | 0.448
RRIRVRPPRLPRPRPRPQTTPRP | 0.213
RRIRYRPPRLPRPRPRPKNNPRP | -1.02
RRIRWRPPRLPRPRPRPQVEPRP | -0.00667
RRIRCRPPRLPRPRPRPMNDPRP | -0.44
RRIRHRPPRLPRPRPRPQLTPRP | -0.261
RRIRDRPPRLPRPRPRPTNTPRP | -0.142
RRIRIRPPRLPRPRPRPFDMPRP | -0.142
RRIRLRPPRLPRPRPRPRSTPRP | -0.00899

Sequence | shrunken log2 fold change
RRIRKRPPRLPRPRPRPVDMPRP | -0.122
RRIRGRPPRLPRPRPRPFITPRP | 0.0604
RRIRQRPPRLPRPRPRPEYCPRP | -0.0411
RRIRCRPPRLPRPRPRPRYMPRP | -0.402
RRIRCRPPRLPRPRPRPPFRPRP | 0.377
RRIRSRPPRLPRPRPRPYRLPRP | -0.279
RRIRMRPPRLPRPRPRPGCLPRP | 0.503
RRIRMRPPRLPRPRPRPIRCPRP | 0.086
RRIRARPPRLPRPRPRPEHFPRP | 0.126
RRIRIRPPRLPRPRPRPRFHPRP | -0.42
RRIRPRPPRLPRPRPRPNLYPRP | -0.276
RRIRNRPPRLPRPRPRPDNTPRP | -0.297
RRIRQRPPRLPRPRPRPCCYPRP | -0.0451
RRIRHRPPRLPRPRPRPEYTPRP | -0.0512
RRIRIRPPRLPRPRPRPCKVPRP | -0.513
RRIRTRPPRLPRPRPRPGQGPRP | 0.0576
RRIRNRPPRLPRPRPRPDCMPRP | 0.113
RRIRIRPPRLPRPRPRPWSKPRP | -0.0876
RRIRIRPPRLPRPRPRPPATPRP | 0.177
RRIRCRPPRLPRPRPRPIKNPRP | -0.311
RRIRARPPRLPRPRPRPRYRPRP | 0.165
RRIRPRPPRLPRPRPRPPCEPRP | 0.522
RRIRTRPPRLPRPRPRPEYIPRP | 0.00825
RRIRCRPPRLPRPRPRPCRMPRP | -0.317
RRIRARPPRLPRPRPRPNRFPRP | 0.145
